Experimental data from PMC3029386.

How the values were obtained:
[1] = target: DevR (full-length) (Mycobacterium tuberculosis) (UniProt P9WMF9); assay: DNase I footprinting
[2] = target: DevRC (DevR C-terminal domain) (Mycobacterium tuberculosis H37Rv) (UniProt P9WMF9); assay: DNase I footprinting
Sequence of DevRC (DevR C-terminal domain) (Mycobacterium tuberculosis H37Rv) (P9WMF9 141-217): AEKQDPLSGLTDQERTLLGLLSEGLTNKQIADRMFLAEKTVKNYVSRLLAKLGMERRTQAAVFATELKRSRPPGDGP

Sequence of DevR (full-length) (Mycobacterium tuberculosis) (P9WMF9 whole entry, the tested form may be a part): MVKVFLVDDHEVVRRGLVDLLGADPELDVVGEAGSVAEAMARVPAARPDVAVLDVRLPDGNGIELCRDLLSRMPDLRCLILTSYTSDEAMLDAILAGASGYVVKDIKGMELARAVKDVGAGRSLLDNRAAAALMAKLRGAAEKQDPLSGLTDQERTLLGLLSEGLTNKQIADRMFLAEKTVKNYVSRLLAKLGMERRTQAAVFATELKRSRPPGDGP

TGGCTGCCGGGCCTTTCCCATCAACGGCTGCGGTCATCTATTAAGGATCGCGCGTCGACAGCCGCGGTGGCAGAGCACGAAGGCTCGCCAGCGGAGGACCTTTGGCCCTGCCTCAACGGCTCCTCGCAGCGGAGAGTGGTACTGACGGTTGCAGATAATCCGGATCACCGGGGAAGGCGCTGACCATG (double strand) [tgs1-Rv3131 intergenic DNA (3130F/3131R)]
binding [1]: binds | binding [2]: binds
